Laboratory results as given in patent US20240116985A1, “STAPLED PEPTIDES AND METHODS THEREOF” (priority 2020, published 2024).
Values belong to the binder of their own block, whether it stands above or below them. Starred links: 1 amine or outer side, 2 acyl side, 3 side chain; linkers in the order of their positions; H or OH if unused. Positions of bridges follow the written chain, without caps; N, C: chain ends. Non-standard residues stand in square brackets, D forms with d. Primed or numbered codes have the meaning given here. *: point of attachment. PyrS2″ = (S)-3-amino-1-((pent-4-en-1-yloxy)carbonyl)pyrrolidine-3-carboxylic acid (stapling residue), C=CCCCOC(=O)N1CC[C@@](N[*:1])(C(=O)[*:2])C1; B5(4) = 2,2-bis(4-pentenyl)glycine = 2-amino-2-(pent-4-en-1-yl)hept-6-enoic acid (stitching residue), C=CCCCC(CCCC=C)(N[*:1])C(=O)[*:2]; B5(8) = 2,2-bis(4-pentenyl)glycine (2-amino-2-(pent-4-en-1-yl)hept-6-enoic acid, stitching residue), C=CCCCC(CCCC=C)(N[*:1])C(=O)[*:2]; TfeGA = (S)-2-amino-3-((carboxymethyl)(2,2,2-trifluoroethyl)amino)propanoic acid, O=C([C@H](CN(CC(=O)[*:3])CC(F)(F)F)N[*:1])[*:2]; PyrS2 = (S)-3-amino-1-((pent-4-en-1-yloxy)carbonyl)pyrrolidine-3-carboxylic acid, C=CCCCOC(=O)N1CC[C@@](N[*:1])(C(=O)[*:2])C1; B5(12) = 2-amino-2-(pent-4-en-1-yl)hept-6-enoic acid (two olefin side chains), C=CCCCC(CCCC=C)(N[*:1])C(=O)[*:2]; B5(13) = 2-amino-2-(pent-4-en-1-yl)hept-6-enoic acid (two alkene chains), C=CCCCC(CCCC=C)(N[*:1])C(=O)[*:2]; B5(3) = 2,2-bis(4-pentenyl)glycine (stitching residue), C=CCCCC(CCCC=C)(N[*:1])C(=O)[*:2]; B5 = 2-amino-2-(pent-4-en-1-yl)hept-6-enoic acid, C=CCCCC(CCCC=C)(N[*:1])C(=O)[*:2]; 4pentenyl = N-terminal pent-4-enoic acid (acyl cap), C=CCCC(=O)*; Phe(4-COOH) = N[C@@H](Cc1ccc(C(=O)O)cc1)C(=O)O; Phe(2-Cl) = N[C@@H](Cc1ccccc1Cl)C(=O)O; 2Nal = N[C@@H](Cc1ccc2ccccc2c1)C(=O)O; Bta = N[C@@H](Cc1csc2ccccc12)C(=O)O; αAllylPro = C=CC[C@@]1(C(=O)O)CCCN1; tBuAla = CC(C)(C)C[C@H](N)C(=O)O; 3Thi = N[C@@H](Cc1ccsc1)C(=O)O; S8 = C=CCCCCCC[C@](C)(N)C(=O)O; hSer = N[C@@H](CCO)C(=O)O

Key:
Bcat-Halo [1] = target: Bcat-Halo (UniProt P35222); experiment: NanoBRET in HEK293 cells, B-cat-Halo/TCF4-Luc, absolute IC50
[2] = target: full-length beta-Catenin (Uniprot ID P35222) (Homo sapiens (Human)) (UniProt P35222); experiment: fluorescence polarization competition against 5FAM TCF4 10-53 probe
Target sequence in this assay (P35222 whole entry, the tested form may be a part): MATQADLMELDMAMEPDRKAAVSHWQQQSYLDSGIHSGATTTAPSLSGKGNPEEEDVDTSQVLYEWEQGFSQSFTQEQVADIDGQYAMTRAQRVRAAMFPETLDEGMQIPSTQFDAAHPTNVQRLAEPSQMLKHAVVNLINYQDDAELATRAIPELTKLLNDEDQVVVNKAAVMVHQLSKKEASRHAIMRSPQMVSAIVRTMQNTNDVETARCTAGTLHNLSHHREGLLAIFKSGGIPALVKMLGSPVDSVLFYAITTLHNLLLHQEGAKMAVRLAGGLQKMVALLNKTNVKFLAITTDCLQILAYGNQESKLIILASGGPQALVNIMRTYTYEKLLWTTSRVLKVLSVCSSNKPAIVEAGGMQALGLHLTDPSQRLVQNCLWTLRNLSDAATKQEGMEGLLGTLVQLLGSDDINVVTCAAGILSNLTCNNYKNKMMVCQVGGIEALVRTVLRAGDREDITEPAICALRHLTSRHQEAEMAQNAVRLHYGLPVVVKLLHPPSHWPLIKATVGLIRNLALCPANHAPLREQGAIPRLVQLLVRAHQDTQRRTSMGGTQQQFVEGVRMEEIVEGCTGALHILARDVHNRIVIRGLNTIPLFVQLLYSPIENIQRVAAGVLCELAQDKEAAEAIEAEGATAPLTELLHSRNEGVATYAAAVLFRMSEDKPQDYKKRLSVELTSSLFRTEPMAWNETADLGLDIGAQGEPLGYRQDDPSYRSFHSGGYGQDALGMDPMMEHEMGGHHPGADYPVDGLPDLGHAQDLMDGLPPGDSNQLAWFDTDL

Bcat-Halo [3] = target: Bcat-Halo (UniProt P35222); experiment: NanoBRET in HEK293 cells, Bcat-Halo / TCF4-Luc; peptide at 10 uM; competitor TCF4-Luc
[4] = target: full-length beta-Catenin (Uniprot ID P35222) (Homo sapiens (Human)) (UniProt P35222); experiment: fluorescence polarization competition; full-length beta-catenin; competitor displaced: 5FAM-TCF4 10-53
Target sequence in this assay (P35222 2-781 limits assumed): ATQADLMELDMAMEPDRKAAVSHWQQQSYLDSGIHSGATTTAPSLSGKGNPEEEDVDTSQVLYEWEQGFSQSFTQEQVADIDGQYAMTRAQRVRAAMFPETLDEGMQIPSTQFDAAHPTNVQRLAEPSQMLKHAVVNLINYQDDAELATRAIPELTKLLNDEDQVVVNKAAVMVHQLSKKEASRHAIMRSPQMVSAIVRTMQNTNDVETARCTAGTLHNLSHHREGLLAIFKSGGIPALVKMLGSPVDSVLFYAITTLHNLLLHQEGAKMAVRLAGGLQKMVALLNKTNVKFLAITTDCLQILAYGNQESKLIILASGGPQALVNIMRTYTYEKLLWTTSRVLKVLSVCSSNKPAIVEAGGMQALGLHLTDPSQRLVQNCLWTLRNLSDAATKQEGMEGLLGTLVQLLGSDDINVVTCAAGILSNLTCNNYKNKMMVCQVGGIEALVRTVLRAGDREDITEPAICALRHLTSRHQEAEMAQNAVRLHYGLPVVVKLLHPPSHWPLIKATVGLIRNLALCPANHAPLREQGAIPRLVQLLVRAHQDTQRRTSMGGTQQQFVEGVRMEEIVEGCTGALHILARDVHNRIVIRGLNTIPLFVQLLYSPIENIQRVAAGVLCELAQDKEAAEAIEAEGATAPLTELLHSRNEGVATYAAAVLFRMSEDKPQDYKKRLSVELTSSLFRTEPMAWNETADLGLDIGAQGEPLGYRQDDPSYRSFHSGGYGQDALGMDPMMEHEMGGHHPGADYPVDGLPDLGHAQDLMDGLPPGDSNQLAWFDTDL

[5] = target: full-length beta-Catenin (Uniprot ID P35222) (Homo sapiens (Human)) (UniProt P35222); experiment: fluorescence polarization competition; full-length beta-catenin + 5FAM-TCF4(10-53) probe; peptide titrated
Target sequence in this assay (P35222 2-781 limits assumed): as above

[6] = target: full-length beta-Catenin (Uniprot ID P35222) (Homo sapiens (Human)) (UniProt P35222); experiment: FP competition vs 5FAM-TCF4(10-53) probe on full-length beta-catenin
Target sequence in this assay (P35222 whole entry, the tested form may be a part): as the sequence (P35222 whole entry, the tested form may be a part) above

[7] = target: full-length beta-Catenin (Uniprot ID P35222) (Homo sapiens (Human)) (UniProt P35222); experiment: AlphaScreen competition vs biotin-TCF4(10-53) on full-length beta-catenin
Target sequence in this assay (P35222 whole entry, the tested form may be a part): as above

[8] = target: beta-catenin (full-length, Uniprot ID P35222) (Homo sapiens (Human)) (UniProt P35222); experiment: fluorescence polarization competition; full-length beta-catenin; competitor 5FAM-TCF4(10-53) probe
Target sequence in this assay (P35222 whole entry, one chain of several): as the sequence (P35222 whole entry, the tested form may be a part) above

[9] = target: full-length beta-Catenin (Uniprot ID P35222) (Homo sapiens (Human)) (UniProt P35222); experiment: AlphaScreen competition; full-length beta-catenin with biotin-TCF4(10-53) probe as competitor
Target sequence in this assay (P35222 2-781 limits assumed): as the sequence (P35222 2-781 limits assumed) above

Bcat-Halo [10] = target: Bcat-Halo (UniProt P35222); experiment: NanoBRET Abs IC50; HEK293 cells transfected with B-cat-Halo and TCF4-Luc
[11] = target: full-length beta-Catenin (Uniprot ID P35222) (Homo sapiens (Human)) (UniProt P35222); experiment: fluorescence polarization competition; full-length beta-catenin, 5FAM-TCF4(10-53) probe
Target sequence in this assay (P35222 2-781 limits assumed): as above

[12] = target: Bcat-Halo (beta-catenin HaloTag construct expressed in HEK293 cells) (UniProt P35222); experiment: NanoBRET in HEK293 cells, percent inhibition at 10 uM peptide; Bcat-Halo with TCF4-Luc as competitor
[13] = target: full-length beta-Catenin (Uniprot ID P35222) (Homo sapiens (Human)) (UniProt P35222); experiment: fluorescence polarization competition; displacement of 5FAM-TCF4(10-53) from full-length beta-catenin
Target sequence in this assay (P35222 whole entry, the tested form may be a part): as the sequence (P35222 whole entry, the tested form may be a part) above

[14] = target: full-length beta-Catenin (Uniprot ID P35222) (Homo sapiens (Human)) (UniProt P35222); experiment: fluorescence polarization competition; 10 nM full-length beta-catenin with 10 nM 5FAM-TCF4 (residues 10-53) probe as competitor
Target sequence in this assay (P35222 2-781 limits assumed): as the sequence (P35222 2-781 limits assumed) above

Bcat-Halo [15] = target: Bcat-Halo (UniProt P35222); experiment: NanoBRET in HEK293 cells, Bcat-Halo / TCF4-Luc; absolute IC50
[16] = target: full-length beta-Catenin (Uniprot ID P35222) (Homo sapiens (Human)) (UniProt P35222); experiment: FP competition; full-length beta-catenin, competitor 5FAM-TCF4(10-53)
Target sequence in this assay (P35222 whole entry, the tested form may be a part): as the sequence (P35222 whole entry, the tested form may be a part) above

[17] = target: full-length beta-Catenin (Uniprot ID P35222) (Homo sapiens (Human)) (UniProt P35222); experiment: fluorescence polarization competition; full-length beta-catenin + 5FAM-TCF4 10-53 probe, peptide titrated
Target sequence in this assay (P35222 2-781 limits assumed): as the sequence (P35222 2-781 limits assumed) above

Bcat-Halo [18] = target: Bcat-Halo (UniProt P35222); experiment: NanoBRET Abs IC50 in HEK293 cells; Bcat-Halo, competitor TCF4-Luc
[19] = target: full-length beta-Catenin (Uniprot ID P35222) (Homo sapiens (Human)) (UniProt P35222); experiment: fluorescence polarization competition; full-length beta-catenin, competitor 5FAM-TCF4(10-53) probe
[20] = target: full-length beta-Catenin (Uniprot ID P35222) (Homo sapiens (Human)) (UniProt P35222); experiment: fluorescence polarization competition, full-length beta-catenin with 5FAM-TCF4(10-53) probe as competitor
Bcat-Halo [21] = target: Bcat-Halo (UniProt P35222); experiment: NanoBRET Abs IC50; Bcat-Halo/TCF4-Luc engagement in HEK293 cells
[22] = target: full-length beta-Catenin (Uniprot ID P35222) (Homo sapiens (Human)) (UniProt P35222); experiment: fluorescence polarization competition; 5FAM-TCF4 10-53 probe on full-length beta-catenin
Target sequence in this assay (P35222 whole entry, the tested form may be a part): as the sequence (P35222 whole entry, the tested form may be a part) above

[23] = target: full-length beta-Catenin (Uniprot ID P35222) (Homo sapiens (Human)) (UniProt P35222); experiment: fluorescence polarization competition, peptide titrated against full-length beta-catenin + 5FAM-TCF4(10-53)
Bcat-Halo [24] = target: Bcat-Halo (UniProt P35222); experiment: NanoBRET in HEK293 cells, Bcat-Halo/TCF4-Luc (competitor TCF4-Luc); IC50
Bcat-Halo [25] = target: Bcat-Halo (UniProt P35222); experiment: NanoBRET in HEK293 cells, Bcat-Halo/TCF4-Luc (competitor TCF4-Luc); percent inhibition at 10 uM peptide
[26] = target: full-length beta-Catenin (Uniprot ID P35222) (Homo sapiens (Human)) (UniProt P35222); experiment: fluorescence polarization competition; peptide displaces 5FAM-TCF4(10-53) from full-length beta-catenin
[27] = target: full-length beta-Catenin (Uniprot ID P35222) (Homo sapiens (Human)) (UniProt P35222); experiment: fluorescence polarization competition vs 5FAM-TCF4(10-53) on full-length beta-catenin
[28] = target: full-length beta-Catenin (Uniprot ID P35222) (Homo sapiens (Human)) (UniProt P35222); experiment: fluorescence polarization competition; peptide titrated against full-length beta-catenin + 5FAM-TCF4(10-53) probe
[29] = target: beta-catenin (full-length, Uniprot ID P35222) (Homo sapiens (Human)) (UniProt P35222); experiment: fluorescence polarization competition, displacement of 5FAM-TCF4 10-53 from full-length beta-catenin
Target sequence in this assay (P35222 2-781 limits assumed): as the sequence (P35222 2-781 limits assumed) above

Bcat-Halo [30] = target: Bcat-Halo (UniProt P35222); experiment: NanoBRET Abs IC50 (absolute IC50) in HEK293 cells, Bcat-Halo / TCF4-Luc engagement
[31] = target: full-length beta-Catenin (Uniprot ID P35222) (Homo sapiens (Human)) (UniProt P35222); experiment: fluorescence polarization competition, full-length beta-catenin with 5FAM-TCF4(10-53) probe
[32] = target: full-length beta-Catenin (Uniprot ID P35222) (Homo sapiens (Human)) (UniProt P35222); experiment: fluorescence polarization competition; 10 nM full-length beta-catenin; competitor 5FAM-TCF4 10-53 probe
[33] = target: full-length beta-Catenin (Uniprot ID P35222) (Homo sapiens (Human)) (UniProt P35222); experiment: fluorescence polarization competition; 10 nM full-length beta-catenin + 10 nM 5FAM-TCF4(10-53) as competitor probe; peptide titrated (top concentration 10 uM)

Chain of Bcat-Halo (P35222 whole entry): as the sequence (P35222 whole entry, the tested form may be a part) above
Chain of Bcat-Halo (beta-catenin HaloTag construct expressed in HEK293 cells) (P35222 whole entry): as the sequence (P35222 whole entry, the tested form may be a part) above

Binder: Ac-[αAllylPro]D[tBuAla][B5(8)]DDAAFN[PyrS2″][3Thi][Bta]H-NH2 (staple 1-4, 4-11) [I-694]
NanoBRET % inh @ 10 uM (Bcat-Halo [3]): 32.7%
IC50 [4]: 5 nM
EC50 [5]: 5 nM

Binder: Ac-[αAllylPro]DA[B5(4)]D[2Nal]AAFQ[S8]F[Bta]Q-NH2 (staple 1-4, 4-11) [I-295]
EC50 [6]: 5000 nM
EC50 [7]: 1180 nM
IC50 [8]: 5000 nM

Binder: Ac-[αAllylPro]DA[B5(12)]DEAAFV[S8]F[2Nal]-NH2 (staple 1-4, 4-11) [I-141]
EC50 [9]: 5450 nM

Binder: Ac-[αAllylPro]DL[B5(8)]DDAAFN[PyrS2″][3Thi][Bta]H-NH2 (staple 1-4, 4-11) [I-696]
NanoBRET % inh @ 10 uM (Bcat-Halo [3]): 17%
IC50 [4]: 5 nM
EC50 [5]: 5 nM

Binder: Ac-[αAllylPro]D[tBuAla][B5(4)]DEAAFN[S8]F[Bta]Q-NH2 (staple 1-4, 4-11) [I-677]
IC50 (Bcat-Halo [18]): 6700 nM
IC50 [19]: 22 nM
EC50 [20]: 22 nM

Binder: Ac-[αAllylPro]D[tBuAla][B5]DDAAFN[PyrS2″][3Thi][Bta][dN]-NH2 (staple 1-4, 4-11) [I-818]
IC50 (Bcat-Halo [21]): 15000 nM
IC50 [22]: 6 nM
EC50 [23]: 6 nM

Binder: Ac-[αAllylPro]D[tBuAla][B5(13)]DDAAFN[PyrS2]F[Bta]H-NH2 (staple 1-4, 4-11) [I-777]
IC50 (Bcat-Halo [24]): 14400 nM
EC50 [19]: 5 nM
NanoBRET % inh @ 10 uM (Bcat-Halo [25]): 24.5%
IC50 [26]: 5 nM

Binder: Ac-[αAllylPro]DA[B5(4)]DDAAFV[S8][Phe(4-COOH)][Bta]Q-NH2 (staple 1-4, 4-11; also: later-eluting staple isomer) [I-340]
IC50 [27]: 5000 nM
EC50 [28]: 5000 nM

Binder: Ac-[αAllylPro]DA[B5(4)]D[TfeGA]AAFV[S8]F[Bta]Q-NH2 (staple 1-4, 4-11) [I-293: Ac-PL3-Asp-Ala-B5-Asp-TfeGA-Ala-Ala-Phe-Val-S8-Phe-BztA-Gln-NH2]
IC50 [29]: 140 nM

Binder: Ac-[αAllylPro]DA[B5(4)]DDAAFV[S8][Phe(4-COOH)][Bta]Q-NH2 (staple 1-4, 4-11; also: earlier-eluting staple isomer) [I-339]
IC50 [27]: 5000 nM
EC50 [28]: 5000 nM

Results, then the binder that gave them:

IC50 (Bcat-Halo [1]): > 20000 nM
IC50 [2]: 234 nM
B1: I-2599 (peptide)
peptide: 4pentenyl-XD[B5(3)]ADDAAF[PyrS2]L[3Thi][Bta]Q-NH2
modifications: staple 3-10; staple (positions not given here); not fully specified (residue 1, bridges); printed as 4pentenyl-MePro-Asp-B5-Ala-Asp-Asp-Ala-Ala-Phe-PyrS2-Leu-3Thi-BztA-Gln-NH2

IC50 (Bcat-Halo [10]): > 20000 nM
IC50 [11]: 271 nM
Binder: Ac-[αAllylPro]D[tBuAla][B5]NTAAFN[PyrS2][3Thi][Bta]A-NH2 (staple 1-4, 4-11; also: earlier eluting HPLC isomer) [I-2142]

NanoBRET % inh @ 10 uM [12]: 4.3%
IC50 [13]: 56 nM
EC50 [14]: 35 nM
Binder: Ac-[αAllylPro]D[tBuAla][B5(4)]DLAAFN[PyrS2][3Thi][Bta]Q-NH2 (staple 1-4, 4-11) [I-846]

IC50 (Bcat-Halo [15]): 11300 nM
EC50 [16]: 18 nM
IC50 [17]: 18 nM
Binder: Ac-[αAllylPro]D[tBuAla][B5(4)]DDAAF[hSer][S8]F[Bta]Q-NH2 (staple 1-4, 4-11) [I-1388]

IC50 (Bcat-Halo [30]): 6000 nM
EC50 [31]: 27 nM
IC50 [32]: 27 nM
Binder: Ac-[αAllylPro]D[tBuAla][B5(3)]D[TfeGA]AAFF[PyrS2″][Phe(2-Cl)][Bta]Q-NH2 (staple 1-4, 4-11) [I-923]

IC50 [33]: 10000 nM
Binder: Ac-[αAllylPro]D[tBuAla][B5(4)]NTAAFF[PyrS2″][3Thi][Bta]Q-NH2 (staple 1-4, 4-11) [I-1740]
